Substitutions are numbered along the chain they refer to.
T1: c-Myc conjugated and biotinylated human CD28 stalk region dimeric peptide (wild-type) (human, C-terminal biotin; Cysteine at position 141 (CD28 numbering) forms the disulfide linkage of the dimer)
T1 construct: the Methods describe only this biotinylated dimeric peptide design, so it is used here; also called Biotin conjugated CD28 stalk region dimeric peptide; WT peptide
T1 peptide: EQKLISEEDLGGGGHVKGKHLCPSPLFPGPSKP

T2: L145K mutated biotinylated and Myc tagged human CD28 stalk region dimeric peptide (human, C-terminal biotin; Cysteine at position 141 (CD28 numbering) forms the disulfide linkage of the dimer)
T2 construct: also called L145K CD28 stalk region dimeric peptide; mutant peptide
T2 peptide: T1 peptide with L26K

B1: VHH clone 4A4 (VHH)
VHH: EVQLVESGGGLVQAGGSLRLSCAASGSLFSINAMAWYRQAPGKQRELVAAITSSGSTNYANSVKGRFTVSRDNAKNTMYLQMNSLKPEDTAVYYCVVDEYGSDYWIWGQGTQVTVSS
notes: Produced recombinantly in CHO cells
B2: VHH clone 4A1 (VHH)
VHH: QVQLVESGGGLVQAGGSLRLSCAASGSIFSINAMGWYRQAPGKQRERVAAITSGGSTNYADSVKGRFTISRDNAKNTVYLQMNNLEPRDAGVYYCVVDLYGEDYWIWGQGTQVTVSS
notes: as for B1
B3: VHH clone 2A1 (VHH)
VHH: EVQLVESGGGLVQAGESLRLSCAASGSIASINAMGWYRQAPGSQRELVAAISGGGDTYYADSVKGRFTISRDNAKTTVYLQMNSLRPEDTAVYYCVVDLYGSDYWDWGQGTQVTVSS
modifications: FITC conjugated in the FACS assay of FIG. 6
notes: Produced recombinantly in CHO cells; from a naive llama VHH phage library; The printed text reads 'EVOLVESGGG' (probably Q); also called VHH #2A1

How the values were obtained:
[1] = biological target: T1, c-Myc conjugated and biotinylated human …; experiment: direct ELISA, WT stalk dimeric peptide on neutravidin plate, VHH 0.2-5 µg/mL
Experimental: (§1) Biotin conjugated wild-type or L145K CD28 stalk region dimeric peptides were immobilized on neutravidin coated ELISA maxi-sorb plates. A dilution series of VHH clones (0.2-5 μg/mL) and an irrelevant VHH clone (top left chart) was performed and detection of bound VHH was done with anti His tag-HRP conjugated antibody and development was done with TMB.

[2] = biological target: T2, L145K mutated biotinylated and Myc …; experiment: direct ELISA, peptide on neutravidin plate, anti His tag-HRP
Experimental: as §1

membranal human CD28 = biological target: T3, membranal human CD28 (human, UniProt P10747 19-220); experiment: FACS, FITC conjugated VHH on HEK cells overexpressing CD28
T3 construct: also called mCD28; HEK cells overexpressing human CD28

[3] = biological target: T1, c-Myc conjugated and biotinylated human …; experiment: phage library screen by ELISA and flow cytometry against recombinant CD28 extracellular domain and the dimeric stalk region peptide

| Binder | binding result [1] | binding result [2] | binding result (membranal human CD28) | binding result [3] |
| --- | --- | --- | --- | --- |
| B1 | binds | no binding (tested: 0.2-5 µg/mL) | – | – |
| B2 | binds | no binding (tested: 0.2-5 µg/mL) | – | – |
| B3 | – | no binding (tested: 0.2-5 µg/mL) | binds | binds |
